{
  "source": "patent US20160228506A1",
  "about": "“Compositions and Formulations for Prevention and Reduction of Tumorigenesis, Cancer Cell Proliferation and Invasion, and Methods of Production and Use Thereof in Cancer Treatment” (PRONUTRIA, INC., priority 2013, published 2016)",
  "molecules": {"B1": {"name": "SEQID-00099: nutritive polypeptide (protein, listed as Thermosynechococcus elongatus)", "chain": "MNQSEILEKVKAIVADQLSVDPEKVVPEASFAEDLNADSLDSVELIMALEEEFGVEIPDEEAEKLKTVQDVLDFINNKVAA"}, "B2": {"name": "SEQID-00098: nutritive polypeptide (protein, listed as Lactococcus lactis)", "chain": "MAVFEKVQDIIVDELGKEKEEVTLETSFEELDADSLDLFQIINDIEDEFDVEVDTEADMKTVADLVKYVENNK"}, "B3": {"name": "SEQID-00598: nutritive polypeptide naturally produced in Flaxseed, recombinantly expressed in E. coli (protein, listed as Linum usitatissimum)", "chain": "MSRRCPGKNAWPELVGKSGNMAAATVERENRNVHAIVLKEGSAMTKDFRCDRVWVIVNDHGVVTSVPHIT"}, "B4": {"name": "SEQID-00647: protein of the 168 nutritive polypeptide library (protein)", "chain": "MALSKIEEARQLNDDDLSEQILEIKKQLANLRLLKATGRLEKPHEIRHTRHRLSQLLTVERERQLPNQSPA", "modifications": "Arthrospira platensis C1", "notes": "protein of the 168 nutritive polypeptide library"}, "B5": {"name": "SEQID-00546: protein of the 168 nutritive polypeptide library (protein, listed as Saccharomyces cerevisiae)", "chain": "MCSAGGIRRPIQIEEFKTAISGMSDMELAQIKTEIENSINHLQRSNARLGKYIAKLEGADDRLEADDSDDLENIDSGDLALYKDSVRENEIVLNNYNERVDALEQETVYRKTGHGKSKHEVEAKDNTNKGPDVDMDNSNVDVVTPNSIFI", "modifications": "source: /note=\"strain ATCC 204508 / S288c\"", "notes": "as for B4"}, "B6": {"name": "SEQID-00418: nutritive polypeptide (protein)", "chain": "VPRVRRQGASSSFDYKSQIVRGVNLGGWLVTEPWITPSLYDSTGGGAVDEWTLCQILGKDEAQAKLSSHWSSFITQSDFDRMAQAGLNHVRIPIGYWAVAPIDGEPYVSGQIDYLDQAVTWARAAGLKVLVDLHGAPGSQNGFDNSGHRGPIQWQQGDTVNQTMTAFDALARRYAQSDTVTAIEAVNEPNIPGGVNEDGLKNYYYGALADVQRLNPSTTLFMSDGFQPVESWNGFMQGSNVVMDTHHYQVFDTGLLSMSIDDHVKTACSLATQHTMQSDKPVVVGEWTGALTDCAKYLNGVGNAARYDGTYMSTTKYGDCTGKSTGSVADFSADEKANTRRYIEAQLEAYEMKSGWLFWTWKTEGAPGWDMQDLLANQLFPTSPTDRQYPHQCS", "modifications": "Aspergillus niger; source: /note=\"strain CBS 513.88 / FGSC A1513\""}, "B7": {"name": "SEQID-00418 (E. coli): nutritive polypeptide (protein)", "chain": "B6 chain", "modifications": "Aspergillus niger; source: /note=\"strain CBS 513.88 / FGSC A1513\""}, "B8": {"name": "SEQID-00359: nutritive polypeptide naturally produced in Sheep, recombinantly expressed in E. coli (protein)", "chain": "MLELGSQRNRAKNNHIGDLMSQSFESLGISEQRARHLETLGFTEPTPVQIQAIPEMLSGRDVVGMAQTGTGKTAAFSLPILEQIDVHAAGIQALVLTPTRELAMQVKEAIRTFSDDNALYVLTVYGGQSIDRQIQRLRRGVQVVVGTPGRILDLLNRGELKLDLLRWLVLDEADEMLSMGFIQDVEKILESADSEHRQTAFFSATMDASISKLVRRHLKSPVTVKVETPKATPKRIEQSVYMVPRGWSKARALEPILELEDPESAIIFVRTKQSAADLTNQLQAAGHSVDEYHGNLNQSQRERLLMRLRRRQVRWIVATDIAARGLDVDHLTHVINYDLPDQVDSYVHRIGRTGRAGREGKAITLIQPIDRRKLRNIERHLRQTLSIQSIPKRAEIEARYIDRLKDRVRDALAGERMASFLPIVSQLSEEYDPHAIAAAALQLAYDQTRPASIGRDDYEDDDDAVSNKPKLIKRRRPASVSNNS", "modifications": "Arthrospira platensis NIES-39"}, "B9": {"name": "SEQID-00363 (E. coli): SEQID-00363 expressed recombinantly in E. coli (protein)", "chain": "ATLDSWLSNEATVARTAILNNIGADGAWVSGADSGIVVASPSTDNPDYFYTWTRDSGLVLKTLVDLFRNGDTSLLSTIENYISAQAIVQGISNPSGDLSSGAGLGEPKFNVDETAYTGSWGRPQRDGPALRATAMIGFGQWLLDNGYTSTATDIVWPLVRNDLSYVAQYWNQTGYDLWEEVNGSSFFTIAVQHRALVEGSAFATAVGSSCSWCDSQAPEILCYLQSFWTGSFILANFDSSRSGKDANTLLGSIHTFDPEAACDDSTFQPCSPRALANHKEVVDSFRSIYTLNDGLSDSEAVAVGRYPEDTYYNGNPWFLCTLAAAEQLYDALYQWDKQGSLEVTDVSLDFFKALYSDAATGTYSSSSSTYSSIVDAVKTFADGFVSIVETHAASNGSMSEQYDKSDGEQLSARDLTWSYAALLTANNRRNSVVPASWGETSASSVPGTCAATSAIGTYSSVTVTSWPSIVATGGTTTTATPTGSGSVTSTSKTTATASKTSTSTSSTSCTTPTAVAVTFDLTATTTYGENIYLVGSISQLGDWETSDGIALSADKYTSSDPLWYVTVTLPAGESFEYKFIRIESDDSVEWESDPNREYTVPQACGTSTATVTDTWR", "modifications": "Aspergillus niger"}, "B10": {"name": "SEQID-00420: nutritive polypeptide (protein)", "chain": "AAAPLEKRSCTFTSASAAKSGKSSCSTITLDNIAVPAGETLDLTGLKKGTTVIFEGETTFGYKEWKGPLISMSGTDITVKQASGAKINCDGARWWDGKGSNGGKTKPKFFQAHKLDQSSITGLKVYNTPVQGFSILADHLTITDVTIDNSAGTSKGHNTDAFDIGQSTYITIDGATVYNQDDCLAINSGEHITFTNGYCDGGHGLSIGSIGGRSDNTVNDVTISNSKVLNSQNGVRIKTIYGKTGTVENVKFEDITLSDISKYGIVVEQDYENGSPTGTPTNGVKVEDITFKKVTGSVKSSGTDIYILCGSGSCSNWTWSGVDVTGGKKSSKCKNVPSGASCSD", "modifications": "Aspergillus niger; source: /note=\"strain CBS 513.88 / FGSC A1513\""}, "B11": {"name": "SEQID-00407 (BS): α-amylase in Bacillus subtilis; Wild-type of Tables E37A and E38E (protein, listed as Bacillus subtilis)", "chain": "ETANKSNELTAPSIKSGTILHAWNWSFNTLKHNMKDIHDAGYTAIQTSPINQVKEGNQGDKSMSNWYWLYQPTSYQIGNRYLGTEQEFKEMCAAAEEYGIKVIVDAVINHTTSDYAAISNEVKSIPNWTHGNTQIKNWSDRWDVTQNSLLGLYDWNTQNTQVQSYLKRFLDRALNDGADGFRFDAAKHIELPDDGSYGSQFWPNITNTSAEFQYGEILQDSASRDAAYANYMDVTASNYGHSIRSALKNRNLGVSNISHYASDVSADKLVTWVESHDTYANDDEESTWMSDDDIRLGWAVIASRSGSTPLFFSRPEGGGNGVRFPGKSQIGDRGSALFEDQAITAVNRFHNVMAGQPEELSNPNGNNQIFMNQRGSHGVVLANAGSSSVSINTATKLPDGRYDNKAGAGSFQVNDGKLTGTINARSVAVLYPDDIAKAPHVFLENYKTGVTHSFNDQLTITLRADANTTKAVYQINNGPETAFKDGDQFTIGKGDPFGKTYTIMLKGTNSDGVTRTEKYSFVKRDPASAKTIGYQNPNHWSQVNAYIYKHDGSRVIELTGSWPGKPMTKNADGIYTLTLPADTDTTNAKVIFNNGSAQVPGQNQPGFDYVLNGLYNDSGLSGSLPH", "modifications": "source: /note=\"strain 168\""}, "B12": {"name": "SEQID-00001 (HEK293): nutritive polypeptide (protein, listed as Gallus gallus)", "chain": "MGSIGAASMEFCFDVFKELKVHHANENIFYCPIAIMSALAMVYLGAKDSTRTQINKVVRFDKLPGFGDSIEAQCGTSVNVHSSLRDILNQITKPNDVYSFSLASRLYAEERYPILPEYLQCVKELYRGGLEPINFQTAADQARELINSWVESQTNGIIRNVLQPSSVDSQTAMVLVNAIVFKGLWEKAFKDEDTQAMPFRVTEQESKPVQMMYQIGLFRVASMASEKMKILELPFASGTMSMLVLLPDEVSGLEQLESIINFEKLTEWTSSNVMEERKIKVYLPRMKMEEKYNLTSVLMAMGITDVFSSSANLSGISSAESLKISQAVHAAHAEINEAGREVVGSAEAGVDAASVSEEFRADHPFLFCIKHIATNAVLFFGRCVSP", "modifications": "expressed in HEK293"}, "B13": {"name": "SEQID-00672 (BS): nutritive polypeptide (protein, listed as Saccharomyces cerevisiae)", "chain": "MSSSESIRMVLIGPPGAGKGTQAPNLQERFHAAHLATGDMLRSQIAKGTQLGLEAKKIMDQGGLVSDDIMVNMIKDELTNNPACKNGFILDGFPRTIPQAEKLDQMLKEQGTPLEKAIELKVDDELLVARITGRLIHPASGRSYHKIFNPPKEDMKDDVTGEALVQRSDDNADALKKRLAAYHAQTEPIVDFYKKTGIWAGVDASQPPATVWADILNKLGKD", "modifications": "source: /note=\"strain ATCC 204508 / S288c\""}, "B14": {"name": "SEQID-00678 (BS): nutritive polypeptide (protein, listed as Saccharomyces cerevisiae)", "chain": "B13 chain with R42K", "modifications": "source: /note=\"strain ATCC 204508 / S288c\""}},
  "note": "Where a chain is given by its changes, count along the chain named. Names and notes keep the numbering of the source.",
  "data": [
    {"assay": "Thermostability, temperature of aggregation (ProteoStat Thermal Shift)", "type": "physicochemical", "design": "key to Tagg: temperature in °C", "details": "Table E31D; heated 25° C. to 95° C.", "experimental": "(§1) The thermostability of proteins in a buffer cocktail of Citric Acid and Dibasic Sodium Phosphate over a pH range of 2.8 to 7.1 (preparation described above in Table E31B) was determined using the ProteoStat® Thermal Shift Stability Kit (Enzo Life Sciences) according to the manufacturer's standard protocol. Briefly, protein solutions (˜10 mg/ml) containing 1× ProteoStat TS Detection Reagent were heated from 25° C. to 95° C. at a rate of 0.5° C. per 30 sec using a real-time PCR (rtPCR) thermocycler (BioRad) equipped with a plate reader (SynergyMx, Biotek) while monitoring the fluorescence with a Texas Red filter.", "values": [
      {"molecule": "B1", "Tagg (pH 7.1)": 64}
    ]},
    {"assay": "Thermostability, temperature of aggregation (ProteoStat Thermal Shift)", "type": "physicochemical", "design": "key to Tagg: temperature in °C", "details": "pH 7.1", "experimental": "as §1", "values": [
      {"molecule": "B2", "Tagg": ">95"}
    ]},
    {"assay": "SGF digest of 168 nutritive polypeptide library, intact protein by LC-MS/MS", "type": "in vitro ADME", "details": "168 nutritive polypeptide library SGF digest, LC-MS/MS spectral counts", "method_in_brief": "(§2)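 A 168-protein IMAC-purified recombinant library was digested in simulated gastric fluid and the 0 and 10 min samples were profiled by SDS-PAGE fractionation, in-gel trypsin digestion and nanoLC-MS/MS. Percent intact protein at 10 min is the ratio of spectral counts (t10/t0), summed over the peak fraction and two flanking fractions. Filters were 1% FDR and at least two unique peptides.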", "units": {"% Intact Protein at 10 min": "%"}, "values": [
      {"molecule": "B3", "% Intact Protein at 10 min": 24.3},
      {"molecule": "B4", "% Intact Protein at 10 min": 12},
      {"molecule": "B5", "% Intact Protein at 10 min": 0}
    ]},
    {"assay": "SGF digest of 168 nutritive polypeptide library, intact protein by LC-MS/MS", "type": "in vitro ADME", "details": "168 nutritive polypeptide library, LC-MS/MS", "method_in_brief": "as §2", "units": {"% Remaining at 10 min": "%"}, "values": [
      {"molecule": "B3", "% Remaining at 10 min": 24.3},
      {"molecule": "B4", "% Remaining at 10 min": 12}
    ]},
    {"assay": "Intact half-life during simulated gastric fluid (SGF) digestion", "details": "SGF pH 1.5, pepsin:polypeptide 1:20 w/w, 37° C.; intact protein", "units": {"SGF Half-life (t½)": "s"}, "values": [
      {"molecule": "B1", "SGF Half-life (t½)": 60},
      {"molecule": "B6", "SGF Half-life (t½)": 12},
      {"molecule": "B7", "SGF Half-life (t½)": 30},
      {"molecule": "B3", "SGF Half-life (t½)": 30},
      {"molecule": "B8", "SGF Half-life (t½)": 12},
      {"molecule": "B9", "SGF Half-life (t½)": "<600"},
      {"molecule": "B10", "SGF Half-life (t½)": 72},
      {"molecule": "B2", "SGF Half-life (t½)": 24},
      {"molecule": "B11", "SGF Half-life (t½)": 12},
      {"molecule": "B4", "SGF Half-life (t½)": 12},
      {"molecule": "B12", "SGF Half-life (t½)": 516},
      {"molecule": "B5", "SGF Half-life (t½)": "<600"},
      {"molecule": "B13", "SGF Half-life (t½)": 18},
      {"molecule": "B14", "SGF Half-life (t½)": 12}
    ]},
    {"assay": "Intact half-life during simulated gastric fluid (SGF) digestion", "details": "purified proteins, chip electrophoresis", "units": {"Half-life": "s"}, "values": [
      {"molecule": "B3", "Half-life": 30},
      {"molecule": "B4", "Half-life": 12}
    ]}
  ]
}
